Key:
[1] = biological target: T1, full-length PlexA2 with an N-terminal 6xMyc tag (mouse, UniProt P70207 35-1894); test: saturation binding of AP-clustered Fc fusion protein to transfected cells; saturation binding curve of Sema5A-Fc, oligomerized with anti-Fc conjugated to human placental alkaline phosphatase, on COS7 cells expressing PlexA1 or PlexA2; conditions: one partner purified
T1 construct: Plexin-A2, mouse, full length (FL); written as one molecule; also called PlexinA2; Myc-FL-A2; source: COS7, transiently transfected, on cells; HEK293T, transfected, in lysate; not shown: 6xMyc, N-terminal, kept

[2] = biological target: T2, full-length PlexA1 with an N-terminal 6xMyc tag (mouse, UniProt P70206 28-1894); test: as above; conditions: one partner purified
T2 construct: Plexin-A1, mouse, full length (FL); written as one molecule; also called PlexinA1; Myc-FL-A1; source: COS7, transiently transfected, on cells; HEK293T, transfected, in lysate; not shown: 6xMyc, N-terminal, kept
T2 sequence (P70206 28-1894): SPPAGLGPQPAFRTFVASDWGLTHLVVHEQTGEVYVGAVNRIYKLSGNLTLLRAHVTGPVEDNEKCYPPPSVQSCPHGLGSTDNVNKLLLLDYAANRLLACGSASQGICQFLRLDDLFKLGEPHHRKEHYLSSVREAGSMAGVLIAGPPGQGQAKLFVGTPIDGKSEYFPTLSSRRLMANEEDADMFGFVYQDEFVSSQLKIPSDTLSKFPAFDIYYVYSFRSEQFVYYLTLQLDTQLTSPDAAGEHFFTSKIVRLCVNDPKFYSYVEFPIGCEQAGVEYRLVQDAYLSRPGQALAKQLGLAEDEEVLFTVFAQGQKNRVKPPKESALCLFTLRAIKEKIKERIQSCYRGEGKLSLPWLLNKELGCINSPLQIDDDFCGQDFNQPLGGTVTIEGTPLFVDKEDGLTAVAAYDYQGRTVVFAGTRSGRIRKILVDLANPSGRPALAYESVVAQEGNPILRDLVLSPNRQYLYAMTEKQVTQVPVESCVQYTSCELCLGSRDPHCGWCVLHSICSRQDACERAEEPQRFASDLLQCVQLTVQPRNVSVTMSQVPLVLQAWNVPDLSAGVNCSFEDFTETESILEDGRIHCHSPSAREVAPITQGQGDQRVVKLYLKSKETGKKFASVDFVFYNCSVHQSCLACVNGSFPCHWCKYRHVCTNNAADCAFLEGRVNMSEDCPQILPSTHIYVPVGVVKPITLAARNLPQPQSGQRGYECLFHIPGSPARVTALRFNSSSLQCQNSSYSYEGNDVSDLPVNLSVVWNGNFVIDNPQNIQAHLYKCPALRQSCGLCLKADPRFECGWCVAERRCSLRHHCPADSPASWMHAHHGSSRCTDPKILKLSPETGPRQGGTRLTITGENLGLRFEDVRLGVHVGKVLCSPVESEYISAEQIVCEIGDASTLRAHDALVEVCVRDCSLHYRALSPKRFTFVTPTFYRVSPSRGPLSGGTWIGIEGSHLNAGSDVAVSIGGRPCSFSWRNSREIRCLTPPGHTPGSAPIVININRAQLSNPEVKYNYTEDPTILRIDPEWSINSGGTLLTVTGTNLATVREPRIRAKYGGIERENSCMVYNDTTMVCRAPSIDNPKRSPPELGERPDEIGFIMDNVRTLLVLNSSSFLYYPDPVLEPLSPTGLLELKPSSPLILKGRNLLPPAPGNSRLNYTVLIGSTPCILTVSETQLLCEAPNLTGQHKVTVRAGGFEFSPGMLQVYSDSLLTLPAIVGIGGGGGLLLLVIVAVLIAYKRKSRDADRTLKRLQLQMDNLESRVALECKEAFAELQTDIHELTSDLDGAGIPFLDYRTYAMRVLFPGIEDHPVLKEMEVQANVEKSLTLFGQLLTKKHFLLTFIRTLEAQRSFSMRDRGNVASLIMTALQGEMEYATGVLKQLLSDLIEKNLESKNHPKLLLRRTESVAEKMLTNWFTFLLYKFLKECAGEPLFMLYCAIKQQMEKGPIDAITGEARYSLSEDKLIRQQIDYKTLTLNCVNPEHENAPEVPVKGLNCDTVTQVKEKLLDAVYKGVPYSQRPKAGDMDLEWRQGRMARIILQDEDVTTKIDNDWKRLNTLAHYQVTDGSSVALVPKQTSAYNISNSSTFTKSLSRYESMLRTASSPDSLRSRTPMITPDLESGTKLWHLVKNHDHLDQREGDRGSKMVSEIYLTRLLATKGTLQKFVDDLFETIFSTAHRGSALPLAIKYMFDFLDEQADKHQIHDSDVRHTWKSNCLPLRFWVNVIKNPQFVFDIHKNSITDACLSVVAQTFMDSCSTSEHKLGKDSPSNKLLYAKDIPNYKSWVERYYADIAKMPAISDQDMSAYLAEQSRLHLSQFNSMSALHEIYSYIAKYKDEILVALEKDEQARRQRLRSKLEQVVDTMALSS

T1 sequence (P70207 35-1894): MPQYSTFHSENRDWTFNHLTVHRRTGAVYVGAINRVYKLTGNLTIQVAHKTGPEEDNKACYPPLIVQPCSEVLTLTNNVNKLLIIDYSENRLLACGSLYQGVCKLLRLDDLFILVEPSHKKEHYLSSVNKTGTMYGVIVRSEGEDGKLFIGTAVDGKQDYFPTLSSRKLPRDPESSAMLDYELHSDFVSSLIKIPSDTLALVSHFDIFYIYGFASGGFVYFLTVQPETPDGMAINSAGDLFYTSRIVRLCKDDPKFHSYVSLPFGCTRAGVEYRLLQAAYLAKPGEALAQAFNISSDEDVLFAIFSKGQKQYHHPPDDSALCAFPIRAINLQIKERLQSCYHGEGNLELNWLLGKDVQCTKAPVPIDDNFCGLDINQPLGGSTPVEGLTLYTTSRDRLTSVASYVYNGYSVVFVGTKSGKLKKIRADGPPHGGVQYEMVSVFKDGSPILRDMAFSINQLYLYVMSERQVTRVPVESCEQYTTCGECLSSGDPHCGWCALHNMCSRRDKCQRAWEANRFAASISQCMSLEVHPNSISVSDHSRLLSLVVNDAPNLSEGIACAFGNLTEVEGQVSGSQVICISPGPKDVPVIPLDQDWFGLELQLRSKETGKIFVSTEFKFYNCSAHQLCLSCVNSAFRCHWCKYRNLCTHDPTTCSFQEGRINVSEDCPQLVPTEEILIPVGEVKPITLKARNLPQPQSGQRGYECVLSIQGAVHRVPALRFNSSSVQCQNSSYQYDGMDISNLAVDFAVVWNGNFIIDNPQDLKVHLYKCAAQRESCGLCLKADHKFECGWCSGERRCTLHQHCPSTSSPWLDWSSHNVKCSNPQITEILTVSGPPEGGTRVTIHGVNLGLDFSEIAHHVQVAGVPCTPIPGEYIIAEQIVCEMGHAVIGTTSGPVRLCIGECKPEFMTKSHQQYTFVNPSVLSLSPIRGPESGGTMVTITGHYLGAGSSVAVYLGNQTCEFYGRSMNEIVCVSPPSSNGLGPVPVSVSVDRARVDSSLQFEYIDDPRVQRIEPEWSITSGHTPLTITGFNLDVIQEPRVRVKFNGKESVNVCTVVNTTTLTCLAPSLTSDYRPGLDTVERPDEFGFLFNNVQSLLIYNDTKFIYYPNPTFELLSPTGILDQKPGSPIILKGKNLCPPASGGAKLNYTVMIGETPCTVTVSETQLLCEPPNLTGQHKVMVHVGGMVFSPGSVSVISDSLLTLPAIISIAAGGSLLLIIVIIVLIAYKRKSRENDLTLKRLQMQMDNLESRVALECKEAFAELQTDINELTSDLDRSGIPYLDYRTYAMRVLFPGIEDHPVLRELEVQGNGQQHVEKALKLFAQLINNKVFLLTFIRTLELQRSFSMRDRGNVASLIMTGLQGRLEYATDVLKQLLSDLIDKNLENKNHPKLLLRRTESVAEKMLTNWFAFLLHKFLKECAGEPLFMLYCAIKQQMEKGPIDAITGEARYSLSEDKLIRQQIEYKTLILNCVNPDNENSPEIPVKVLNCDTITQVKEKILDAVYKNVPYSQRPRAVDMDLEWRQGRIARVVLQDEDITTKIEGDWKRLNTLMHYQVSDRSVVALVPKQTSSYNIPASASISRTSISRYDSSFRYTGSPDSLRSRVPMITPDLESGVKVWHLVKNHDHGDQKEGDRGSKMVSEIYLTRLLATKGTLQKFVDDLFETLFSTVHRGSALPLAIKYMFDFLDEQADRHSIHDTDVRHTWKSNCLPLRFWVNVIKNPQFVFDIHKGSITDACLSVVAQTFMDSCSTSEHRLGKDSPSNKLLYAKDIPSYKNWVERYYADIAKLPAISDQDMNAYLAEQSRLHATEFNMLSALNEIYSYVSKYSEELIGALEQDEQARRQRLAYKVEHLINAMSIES

Kd [1]: 13 nM
Kd [2]: 10 nM
B1: Sema5A-Fc (Sema5A ectodomain fused to Fc) (Fc fusion, rat, UniProt D3ZTD8 23-961, looked up)
chain: ETQDPAKCQRAEHPVVSYKEIGPWLREFRAENAVDFSRLTFDPGQKELVVGARNYLFRLQLEDLSLIQAVQWECDEATKKACYSKGKSKEECQNYIRVLLVGGDRLFTCGTNAFTPVCTIRSLSNLTEIHDQISGMARCPYSPQHNSTALLTASGELYAATAMDFPGRDPAIYRSLGTLPPLRTAQYNSKWLNEPNFVSSYDIGNFTYFFFRENAVEHDCGKTVFSRAARVCKNDIGGRFLLEDTWTTFMKARLNCSRPGEVPFYYNELQSTFFLPELDLIYGIFTTNVNSIAASAVCVFNLSAISQAFNGPFKYQENSRSAWLPYPNPNPNFQCGTMDQGLYVNLTERNLQDAQKFILMHEVVQPVTTVPSFMEDNSRFSHVAVDVVQGRDTLVHIIYLATDYGTIKKVRAPLSQSSGSCLLEEIELFPERKSEPIRSLKILHSQSVLFVGLQEHVVKIPLKRCHFHQTRGACIGAQDPYCGWDAVMKKCTSLEESLSMTQWDQSVPTCPTRNLTVDGSFGPWSPWTPCTHTDGTAVGSCLCRSRSCDSPAPQCGGWQCEGPRMEITNCSRNGGWTPWTSWSPCSTTCGIGFQVRQRSCSNPTPRHGGRVCVGQNREERYCNEHLLCPPHVFWTGWGPWERCTAQCGGGIQARRRTCENGPDCAGCNVEYQPCNTNACPELKKTTPWTPWTPVNISDNGGHYEQRFRYTCKARLPDPNLLEVGRQRIEMRYCSSDGTSGCSTDGLSGDFLRAGRYSAHTVNGAWSAWTSWSQCSRDCSRGIRNRKRVCNNPEPKYGGMPCLGPSLEFQECNILPCPVDGVWSCWSSWSKCSATCGGGHYMRTRSCTNPAPAYGGDICLGLHTEEALCNTQTCPENWSEWSEWSVCDASGTQVRTRQCILLFPVGSQCSGNTTESRPCVFDSNFIPEVSVARSSSVEEK
notes: signal peptide in the construct; Sema5A ectodomain, rat cDNA NM_001107659, residues 1-961; Assembled in pcDNA3.0; also called Fc-tagged Sema5A ectodomain protein

Source: publication PMC4236683, “Semaphorin 5A inhibits synaptogenesis in early postnatal- and adult-born hippocampal dentate granule cells” (eLife, 2014)
